B1: mAb16711: anti-BCMA antibody, HCVR/LCVR SEQ ID NOs 2/10 (antibody, V domains shown)
VH: QVQLVESGGGVVQPGRSLRLSCAASGFTFSTYGIHWVRQAPGKGLEWVAVILHDGSSNYYAESVKGRFIISRDNSKNTLYLQMNSLRAEDTALYYCTKRYSEAAGPNWFDPWGQGTLVTVSS
VL: DIQMTQSPSSVSASVGDRVTITCRASRGISSWLAWYQQKPGKAPKLLIHAASSLQSGVPSRFSGSGSGTDFTLTISSLQPEDFATYYCQQAISFPFTFGPGTKVDIK
B2: REGN4514: anti-BCMA antibody, HCVR/LCVR SEQ ID NOs 34/42 (antibody, V domains shown)
VH: EVQLVESGGGLVQPGRSLRLSCAASGFTFDDYAMHWVRQAPGKGLEWVSGISWNSGNMGYADSVKGRFTISRDNAKNSLFLQMHSLRAEDTAFYYCAKVRLTAFDFWGQGTLVTVSS
VL: DIQMTQSPSSLSASVGDRVTITCRTSQSIGNYLNWFQQKPGKAPKLLIYTASSLQNGVPSRFTGSGSGTDFTLTISSLQPEDFVIYYCQQSFSTPYTFGQGTKLEIK
B3: REGN4515: anti-BCMA antibody, HCVR/LCVR SEQ ID NOs 50/58 (antibody, V domains shown)
VH: QVQLVESGGGLVKPGGSLRLSCAASGFTFSDYYISWIRQAPGKGLEWVSYISSSGSSIKYADSVKGRFTISRDNAKNSLYLQMNSLRAEDTAVYYCAREGGNYGMDVWGQGTTVTVSS
VL: DIQMTQSPSSVSASVGDRVTITCRASQGINNWLVWYQQKPGKAPKLLIYAATSLQSGVPSRFSGSGSGTDFTLTISSLQPEDFATYYCQQANSFPPTFGQGTKLEIK

Tests used:
[1] = molecular target: T1, surface BCMA on H929 cells (Homo sapiens, UniProt Q02223); assay: FACS surface BCMA after overnight incubation, NCI-H929; type: cell-based; conditions: range over detecting anti-BCMA antibodies
T1 construct: human cell lines which express endogenous BCMA (e.g., NCI-H929); endogenous in cells; host or cells: multiple myeloma cell lines H929
Procedure: (§1) Flow cytometric analysis was utilized to determine the impact of overnight incubation of multiple myeloma cell lines with anti-BCMA antibodies on the level of surface BCMA. […] After 18 hours, wells were washed with cold FACS wash (PBS+1% filtered FBS) and resuspended in 667 nM of the same anti-BCMA antibody in cold stain buffer (Miltenyi 130-091-221) for 30 minutes on ice. After incubation, the cells were washed twice with cold FACS wash (PBS+1% filtered FBS) and bound antibody was detected by incubating with the appropriate anti-human secondary antibody (anti-hIgG or anti-HIS) on ice for an additional 30-45 minutes. After incubation, cells were washed, re-suspended in 200 μL cold PBS containing 1% filtered FBS and analyzed by flow cytometry on a BD FACS Canto II. Fold increase in staining was calculated by dividing the MFI of stained cells previously incubated overnight in BCMA abs or DAPT by the MFI of stained cells that were incubated overnight in media only.

[2] = molecular target: surface BCMA on Molp8 cells (Homo sapiens, UniProt Q02223); assay: FACS surface BCMA after overnight incubation, Molp8; type: cell-based; conditions: range over detecting anti-BCMA antibodies
Procedure: as §1

[3] = molecular target: T2, surface BCMA on U266 cells (Homo sapiens, UniProt Q02223); assay: FACS surface BCMA after overnight incubation, U266; type: cell-based; conditions: range over detecting anti-BCMA antibodies
T2 construct: human cell lines which express endogenous BCMA; endogenous in cells; host or cells: multiple myeloma cell lines U266
Procedure: as §1

[4] = molecular target: surface BCMA on MM1.S cells (Homo sapiens, UniProt Q02223); assay: FACS surface BCMA after overnight incubation, MM1S; type: cell-based; conditions: MM.1 S
Procedure: as §1

[5] = molecular target: T3, human BCMA-MMH (Homo sapiens, UniProt Q02223); assay: SPR (Biacore 4000) binding kinetics to human BCMA-MMH; conditions: 25° C.
T3 construct: (human BCMA-MMH); myc-myc-hexahistidine (C); made in house
Procedure: (§2) The CM5 Biacore sensor surface was derivatized by amine coupling with a monoclonal mouse anti-human Fc antibody (GE, #BR-11008-39) to capture purified anti-BCMA mAbs and anti-BCMA×anti-CD3 bispecific mAbs. All Biacore binding studies were performed in a buffer composed of 0.01 M HEPES pH 7.4, 0.15M NaCl, 3 mM EDTA, 0.05% v/v Surfactant P20 (HBS-ET running buffer). […] Antigen samples were then injected over the anti-BCMA and anti-BCMA×anti-CD3 bispecific mAbs captured surfaces at a flow rate of 30 μL/minute. Antibody-reagent association was monitored for 5 minutes while dissociation in HBS-ET running buffer was monitored for 10 minutes. All of the binding kinetics experiments were performed at 25° C. Kinetic association (ka) and dissociation (kd) rate constants were determined by fitting the real-time sensorgrams to a 1:1 binding model using Scrubber 2.0c curve fitting software. Binding dissociation equilibrium constants (KD) and dissociative half-lives (t½) were calculated from the kinetic rate constants as: […]

[6] = molecular target: T4, human BCMA-MFC (Homo sapiens, UniProt Q02223); assay: SPR (Biacore 4000) binding kinetics to human BCMA-MFC; conditions: 25° C.
T4 construct: (human BCMA-MFC); made in house
Procedure: as §2

[7] = system: mouse BCMA-MFC; assay: SPR (Biacore 4000) binding kinetics to mouse BCMA-MFC; conditions: 25° C.
Procedure: as §2

[8] = system: monkey BCMA-MMH; assay: SPR (Biacore 4000) binding kinetics to monkey BCMA-MMH; conditions: 25° C.; 90 nM antigen
Procedure: as §2

[9] = system: monkey BCMA-MFC; assay: SPR (Biacore 4000) binding kinetics to monkey BCMA-MFC; conditions: 25° C.
Procedure: as §2

T3 sequence (Q02223 with tags, fused parts or gaps): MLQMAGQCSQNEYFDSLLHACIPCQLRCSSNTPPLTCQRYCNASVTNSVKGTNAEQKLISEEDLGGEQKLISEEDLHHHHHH
mouse BCMA-MFC, sequence (as listed by the source): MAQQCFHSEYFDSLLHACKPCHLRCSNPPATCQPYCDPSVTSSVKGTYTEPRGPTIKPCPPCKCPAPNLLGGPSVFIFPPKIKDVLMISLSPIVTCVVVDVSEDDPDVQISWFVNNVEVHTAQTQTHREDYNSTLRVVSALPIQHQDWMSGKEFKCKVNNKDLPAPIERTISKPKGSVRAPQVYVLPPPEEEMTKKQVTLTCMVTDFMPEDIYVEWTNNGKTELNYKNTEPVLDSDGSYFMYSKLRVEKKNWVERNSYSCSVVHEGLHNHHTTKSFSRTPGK
T4 sequence (Q02223 with tags, fused parts or gaps): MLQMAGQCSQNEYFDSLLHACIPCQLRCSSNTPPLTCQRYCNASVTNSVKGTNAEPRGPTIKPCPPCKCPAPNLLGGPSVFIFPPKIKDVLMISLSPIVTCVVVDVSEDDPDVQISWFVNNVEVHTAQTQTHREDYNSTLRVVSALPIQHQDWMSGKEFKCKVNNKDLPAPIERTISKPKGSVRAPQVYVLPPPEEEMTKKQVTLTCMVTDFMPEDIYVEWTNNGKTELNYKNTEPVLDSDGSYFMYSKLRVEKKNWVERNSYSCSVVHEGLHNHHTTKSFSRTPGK
monkey BCMA-MFC, sequence (as listed by the source): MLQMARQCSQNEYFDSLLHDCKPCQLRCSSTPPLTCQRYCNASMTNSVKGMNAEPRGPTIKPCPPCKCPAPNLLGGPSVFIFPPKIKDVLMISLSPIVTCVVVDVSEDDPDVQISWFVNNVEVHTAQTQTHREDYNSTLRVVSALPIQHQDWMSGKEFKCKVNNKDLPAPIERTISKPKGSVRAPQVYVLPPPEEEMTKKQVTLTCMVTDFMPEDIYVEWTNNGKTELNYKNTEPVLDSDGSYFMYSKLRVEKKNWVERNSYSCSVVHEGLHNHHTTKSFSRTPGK
monkey BCMA-MMH, sequence (as listed by the source): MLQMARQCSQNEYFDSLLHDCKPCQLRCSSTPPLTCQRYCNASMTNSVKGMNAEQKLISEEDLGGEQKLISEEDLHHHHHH
surface BCMA on Molp8 cells, sequence (Q02223 whole entry): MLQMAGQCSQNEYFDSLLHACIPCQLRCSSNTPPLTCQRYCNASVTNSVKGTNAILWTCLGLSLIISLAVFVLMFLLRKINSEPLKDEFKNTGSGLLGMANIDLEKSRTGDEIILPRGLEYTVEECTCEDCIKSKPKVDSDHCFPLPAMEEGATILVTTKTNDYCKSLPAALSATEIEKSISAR
T1 sequence (Q02223 whole entry): as above
T2 sequence (Q02223 whole entry): as above
surface BCMA on MM1.S cells, sequence (Q02223 whole entry): as above

Row | Molecule | fold increase in MFI of BCMA over cells incubated in media only [1] | fold increase in MFI of BCMA over cells incubated in media only [2] | fold increase in MFI of BCMA over cells incubated in media only [3] | fold increase in MFI of BCMA over cells incubated in media only [4] [fold] | ka [5] [M⁻¹ s⁻¹] | kd [5] [s⁻¹] | ka [6] [M⁻¹ s⁻¹] | kd [6] [s⁻¹] | ka [7] [M⁻¹ s⁻¹] | kd [7] [s⁻¹] | 90 nM mfBCMA.mmh Bind (RU) [8] [RU] | ka [9] [M⁻¹ s⁻¹] | kd [9] [s⁻¹]
1 | C[C@H](NC(=O)Cc1cc(F)cc(F)c1)C(=O)N[C@H](C(=O)OC(C)(C)C)c1ccccc1 [DAPT] | 2.3-4 fold | 2.4-8.6 fold | 5.3-9.0 fold | 11.9 | – | – | – | – | – | – | – | – | –
2 | B1 | – | – | – | – | 2.01e+06 | 0.00347 | 1.85e+06 | 0.00019 | 1.07e+06 | 0.0011 | – | – | –
3 | B2 | – | – | – | – | 1.06e+06 | 0.00285 | 1.07e+06 | 4.53e-05 | 397000 | 0.000269 | 1.1 | 492000 | 0.00724
4 | B3 | – | – | – | – | 869000 | 0.00247 | 1.41e+06 | 8.95e-05 | 947000 | 0.00418 | 1.9 | 2.13e+06 | 0.00716
